Reference: US9925272B2, “Anti-theophylline antibodies and methods of use” (Hoffmann-La Roche Inc., priority 2012, dated 2018)
Numbering of substitutions follows the chain as printed. In names and notes the source's numbering stands. Like-named read-outs stand apart in the source and are kept apart here.

B1: humanized antibody: humanized anti-theophylline antibody; VH SEQ ID NO: 12 (V71R), VL SEQ ID NO: 16 (R46L); human IgG1/kappa constant regions (antibody, V domains shown)
VH: QVQLQESGPGLVKPSQTLSLTCTVSGYSITSDYAWNWIRQHPGKGLEWIGYIRYSGHTGYNPSLKSRVTISRDTSKNQFSLKLSSVTAADTAVYYCARWVDYFDYWGQGTLVTVSS
VL: DVVMTQSPLSLPVTLGQPASISCRSSQSIVYNNRYTYLEWFQQRPGQSPRLLIYGVSNRFSGVPDRFSGSGSGTDFTLKISRVEAEDVGVYYCYQGTHAPYTFGQGTKLEIK
modifications: human IgG1/kappa constant regions; humanized VH; humanized VL
B2: murine antibody: murine anti-theophylline antibody, IgG1 kappa, from mouse hybridoma; VH SEQ ID NO: 04, VL SEQ ID NO: 08 (antibody, listed as Mus musculus, V domains shown)
VH: DVQLQESGPGLVKPSQSLSLTCAVTGYSITSDYAWNWIRQFPGNRLEWMGYIRYSGHTGYNPSLKSRISITRDTFKNQFFLQFNSVTTEDTATYYCARWVDYFDYWGQGTTLTVSS
VL: B1 VL with T14S, Q17D, P18Q, Q42V, R44K, P49L, R50K, V88M, Q105G

Legend:
[1] = Surface-plasmon-resonance (SPR) analysis of the affinity of antibody binding to theophylline
From the text: FIG. 3 Binding profiles of the theophylline binding antibodies in SPR experiments.
To determine the affinity of specific binding of the antibody to theophylline, surface-plasmon-resonance (SPR) analyses were applied.

[2] = ELISA for specific binding of the antibody to immobilized biotinylated theophylline; conditions: biotinylated theophylline 500 ng/mL on streptavidin plates; antibody 50-3000 ng/mL; anti-huFc Fab-HRP/ABTS, absorbance 405 nm
Protocol: To determine specific binding of the antibody by ELISA, Streptavidin coated ELISA plates were loaded with biotinylated theophylline (500 ng/mL in PBS) and incubated for 30 minutes at room temperature. After washing twice to remove unbound antigen, antibodies were added at concentrations between 50 and 3000 ng/mL (in PBS) and incubated for 30 minutes. After washing twice, bound antibody was detected with an anti-huFc Fab-HRP conjugate and ABTS substrate (with absorbance measurement at 405 nm).

[3] = read-out: calculated affinities (KD)

Molecule	ka [1]	kd [1]	Kd ([1]; read-out: KD) [nM]	Kd [1, 3] [nM]	Kd ([1]; unit inferred, read-out: KD) [nM]	binding to theophylline immobilized on the ELISA plate [2]
B1	1.31E+05	0.002214	17	17	17	binds specifically and dose dependent to theophylline
B2	1.12E+05	0.00228	20.3	20	20.3	
